In US20260146071A1, “CCR2 INHIBITORS AND METHODS OF USE” (ORION BIOTECHNOLOGY USA Corp., priority 2022, published 2026):
pIC50: −log10 of the molar value. Like-named read-outs stand apart in the source and are kept apart here. Where no end group is shown, it is not given here. [ ]: non-standard residue; d: D form. Nle = CCCC[C@H](N)C(=O)O

Target: T1, CCR2 (Homo sapiens, UniProt P41597)
T1 construct: endogenous in cells; host or cells: THP-1
T1 sequence (P41597 1-360 isoform P41597-2): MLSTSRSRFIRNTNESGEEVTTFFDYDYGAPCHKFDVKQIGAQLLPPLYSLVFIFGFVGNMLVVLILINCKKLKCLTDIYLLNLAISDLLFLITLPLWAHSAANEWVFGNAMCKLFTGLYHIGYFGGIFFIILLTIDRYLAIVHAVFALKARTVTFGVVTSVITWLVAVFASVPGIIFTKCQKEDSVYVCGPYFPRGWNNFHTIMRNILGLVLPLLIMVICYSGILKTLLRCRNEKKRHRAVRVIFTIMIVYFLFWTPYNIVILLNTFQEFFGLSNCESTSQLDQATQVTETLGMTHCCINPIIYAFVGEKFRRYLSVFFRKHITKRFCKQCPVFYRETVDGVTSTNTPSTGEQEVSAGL
Experiment: CCR2 inhibitory potency assay, calcium flux method, THP-1 cells stimulated with 100 nM CCL2
Assay type: cell-based
Settings: for pIC50: CCR2 inhibition, read-out: mean IC50; for IC50: FIG. 5, calcium flux, THP-1 cells, read-out: IC50 (compiled data from four experiments, mean pIC50) (converted); for fold less potent than 1P2-CCL2: compiled data from four experiments
Method: CCR2 inhibitory potency assay was determined using the calcium flux method.
Ca^2+ flux measurements were performed using an FDSS micro-cell device ([…]). On the day of the experiment, THP-1 cells were seeded 20000 cells/well) to wells of black-walled clear-bottom 384-well plates.
THP-1 cells were loaded with a calcium-sensitive fluorescent dye (Screen Quest™ Fluo-8 No Wash Calcium Assay Kit, AAT Bioquest) according to the manufacturer's instructions, then a first addition of either test sample dilutions or vehicle alone were added. 5 minutes later, cells were stimulated with 100 nM CCL2.

Molecule | pIC50 (Table 4) | pIC50 (Table 3) | also measured
CCL2 variant, N-terminal FTNPTWDSFS (SEQ ID NO: 84), human CCL2 11-76 Met64Nle core (not fully specified (C-terminus); also: followed C-terminally by human CCL2 11-76 core with Met64Nle) [3P9-CCL2] | 9.23 |  | 
CCL2 variant, N-terminal AFSIMQAPVT (SEQ ID NO: 15), human CCL2 Met64Nle core [CCL2-M64Nle-1P8] |  | 7.92 | 
CCL2 variant, N-terminal APQWAAAT, positions 1-2 absent (SEQ ID NO: 32), human CCL2 Met64Nle core [CCL2-M64Nle-2P1] |  | 7.05 | 
CCL2 variant, N-terminal ISWFTFNAPVT (SEQ ID NO: 22), human CCL2 Met64Nle core [CCL2-M64Nle-1P13] |  | 7.51 | 
CCL2-M64Nle-NGS-MESR-1 (SYSWVR; also: part of CCL2 M64Nle construct, placement of chain in protein not given here) |  | 6.81 | 
CCL2 variant, N-terminal FTNPTWKPYA (SEQ ID NO: 91), human CCL2 11-76 Met64Nle core (not fully specified (C-terminus); also: followed C-terminally by human CCL2 11-76 core with Met64Nle) [3P16-CCL2] | 8.91 |  | 
CC(C)(C)N1CCN[C@@H](C(=O)N2CCN(C(=O)Nc3ccc(Cl)c(F)c3)CC2)C1 [AZD2423, reference compound] |  |  | IC50: 6 nM; fold less potent than 1P2-CCL2: 3.53 fold
Cc1cnc(C(=O)c2ncnc3[nH]ccc23)c(NS(=O)(=O)c2ccc(Cl)c(C(F)(F)F)c2)c1 [CCX-140, reference compound] |  |  | IC50: 24 nM; fold less potent than 1P2-CCL2: 14.12 fold
CCL2 variant, N-terminal FP(Nle)DGWRGET (SEQ ID NO: 110), human CCL2 11-76 Met64Nle core (FP[Nle]DGWRGET; also: followed by human CCL2 11-76 core with Met64Nle) [4P6-CCL2] | 8.84 |  | 
CCL2-M64Nle-NGS-MESR-5 (AWGGIR; also: part of CCL2 M64Nle construct, placement of chain in protein not given here) |  | 7.38 | 
CCL2 variant, N-terminal FP(Nle)DGWRPLV (SEQ ID NO: 140), human CCL2 11-76 Met64Nle core (FP[Nle]DGWRPLV; also: fused to human CCL2 11-76 core with Met64Nle) [4P22-CCL2] | 9.12 |  | 
CCL2 variant, N-terminal FTNPTWRPST (SEQ ID NO: 80), human CCL2 11-76 Met64Nle core (not fully specified (C-terminus); also: followed C-terminally by human CCL2 11-76 core with Met64Nle) [3P5-CCL2] | 8.54 |  | 
CCL2 variant, N-terminal IYGVGWNAPVT (SEQ ID NO: 14), human CCL2 Met64Nle core [CCL2-M64Nle-1P14] |  | 8.00 | 
CCL2 variant, N-terminal FP(Nle)DGWGSRV (SEQ ID NO: 102), human CCL2 11-76 Met64Nle core (FP[Nle]DGWGSRV; also: followed by human CCL2 11-76 core with Met64Nle) [4P2-CCL2] | 8.57 |  | 
CCL2 variant, N-terminal FTNPTWDSVT (SEQ ID NO: 98), human CCL2 11-76 Met64Nle core (not fully specified (C-terminus); also: followed C-terminally by human CCL2 11-76 core with Met64Nle) [3P23-CCL2] | 9.17 |  | 
CCL2 variant, N-terminal FP(Nle)DGWRGGV (SEQ ID NO: 116), human CCL2 11-76 Met64Nle core (FP[Nle]DGWRGGV; also: followed by human CCL2 11-76 core with Met64Nle) [4P9-CCL2] | 8.78 |  | 
CCL2 variant, N-terminal TPGYLKAPVT (SEQ ID NO: 19), human CCL2 Met64Nle core [CCL2-M64Nle-NGS-MEO-5] |  | 7.74 | 
CCL2 variant, N-terminal VTNPTWAPVT (SEQ ID NO: 20), human CCL2 Met64Nle core [CCL2-M64Nle-1P02-F1V] |  | 7.61 | 
CCL2 variant, N-terminal FP(Nle)DGWRGLT (SEQ ID NO: 106), human CCL2 11-76 Met64Nle core (FP[Nle]DGWRGLT; also: followed by human CCL2 11-76 core with Met64Nle) [4P4-CCL2] | 8.62 |  | 
CCL2 variant, N-terminal FTNPTWDAFT (SEQ ID NO: 76), human CCL2 11-76 Met64Nle core [3P1-CCL2] | 9.18 |  | 

Continued, in another order:

pIC50 (Table 4) | pIC50 (Table 3) | Molecule | also measured
8.83 |  | CCL2 variant, N-terminal FTNPTWATHV (SEQ ID NO: 82), human CCL2 11-76 Met64Nle core [3P7-CCL2] | 
8.99 |  | CCL2 variant, N-terminal FP(Nle)DGWRPRT (SEQ ID NO: 142), human CCL2 11-76 Met64Nle core (FP[Nle]DGWRPRT; also: fused to human CCL2 11-76 core with Met64Nle) [4P23-CCL2] | 
 | 7.48 | CCL2 variant, N-terminal WRPHWSAPVT (SEQ ID NO: 25), human CCL2 Met64Nle core [CCL2-M64Nle-1P3] | 
8.82 |  | CCL2 variant, N-terminal FTNPTWKPST (SEQ ID NO: 90), human CCL2 11-76 Met64Nle core (not fully specified (C-terminus); also: followed C-terminally by human CCL2 11-76 core with Met64Nle) [3P15-CCL2] | 
8.90 |  | CCL2 variant, N-terminal FTNPTWSGVT (SEQ ID NO: 81), human CCL2 11-76 Met64Nle core (not fully specified (C-terminus); also: followed C-terminally by human CCL2 11-76 core with Met64Nle) [3P6-CCL2] | 
 | 6.74 | CCL2 variant, N-terminal TPGH(Nle)KAPVT (SEQ ID NO: 37), human CCL2 Met64Nle core [CCL2-M64Nle-2P4] | 
9.20 |  | CCL2 variant, N-terminal FTNPTWDRFT (SEQ ID NO: 87), human CCL2 11-76 Met64Nle core (not fully specified (C-terminus); also: followed C-terminally by human CCL2 11-76 core with Met64Nle) [3P12-CCL2] | 
9.14 |  | CCL2 variant, N-terminal FTNPTWDPFT (SEQ ID NO: 95), human CCL2 11-76 Met64Nle core [3P20-CCL2] | 
9.03 |  | CCL2 variant, N-terminal FP(Nle)DGWRGLV (SEQ ID NO: 136), human CCL2 11-76 Met64Nle core (FP[Nle]DGWRGLV; also: followed by human CCL2 11-76 core with Met64Nle) [4P20-CCL2] | 
 | 7.85 | CCL2 variant, N-terminal WVLSSLNAPVT (SEQ ID NO: 17), human CCL2 Met64Nle core [CCL2-M64Nle-1P5] | 
 | 6.65 | CCL2 variant, N-terminal TPGHYRAPVT (SEQ ID NO: 39), human CCL2 Met64Nle core [CCL2-M64Nle-2P3] | 
9.36 |  | CCL2 variant, N-terminal FTNPTWDHFV (SEQ ID NO: 88), human CCL2 11-76 Met64Nle core [3P13-CCL2] | 
9.00 |  | CCL2 variant, N-terminal FTNPTWDAGV (SEQ ID NO: 97), human CCL2 11-76 Met64Nle core [3P22-CCL2] | 
9.02 |  | CCL2 variant, N-terminal FP(Nle)DGWVSRT (SEQ ID NO: 124), human CCL2 11-76 Met64Nle core (FP[Nle]DGWVSRT; also: fused to human CCL2 11-76 core with Met64Nle) [4P14-CCL2] | 
9.00 |  | CCL2 variant, N-terminal FTNPTWQEYS (SEQ ID NO: 92), human CCL2 11-76 Met64Nle core (not fully specified (C-terminus); also: followed C-terminally by human CCL2 11-76 core with Met64Nle) [3P17-CCL2] | 
9.09 |  | CCL2 variant, N-terminal FP(Nle)DGWRGQV (SEQ ID NO: 128), human CCL2 11-76 Met64Nle core (FP[Nle]DGWRGQV; also: fused to human CCL2 11-76 core with Met64Nle) [4P16-CCL2] | 
 | 7.57 | CCL2 variant, N-terminal WYTVGWNAPVT (SEQ ID NO: 21), human CCL2 Met64Nle core [CCL2-M64Nle-1P16] | 
